This is an account of results in patent publication US20230192845A1 (BLINK BIOMEDICAL, published 2023).

B1: BL006-19-29G5-29K1 (antibody, V domains shown)
VH: QVTLKESGPGILQSSQTLSLTCSFSGFSLSTFGMGVSWIRKPSGKGLEWLAHIFWDDDKRYNPSLKSRLTISKDTSSNQVFLMINSMDIADTATYYCTRGSNWFAYWGQGTLVTVSA
VL: DIVLTQSPASLAVSLGQRATISCRASESVDSYGNSFMHWYQQKPGQPPKLLIYRASNLESGIPARFSGSGSRTDFTLTINPVEADDVATYYCQQSNEDPLTFGAGTKLELK
notes: Recombinant mIgG2a/kappa (also made as mIgG2a-D265A); also called candidate NO 14
B2: BL006-19-14G3-14K1 (antibody, V domains shown)
VH: QVTLKESGPGILQPSQTLSLTCSFSGFSLDTFGMGVGWIRQSSGKGLEWLAHIWWDDDKFYNPALKSRLTVSKDTSKNQVFLKIANVDTADTATYYCAHYYGSLSFDVWGTGTTVTVSS
VL: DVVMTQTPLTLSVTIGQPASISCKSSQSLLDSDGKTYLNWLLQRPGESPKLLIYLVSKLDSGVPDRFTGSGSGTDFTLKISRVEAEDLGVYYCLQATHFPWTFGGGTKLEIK
notes: Recombinant mIgG2a/kappa (also made as mIgG2a-D265A); also called BL006-19-14G3-14K1 #8; candidate NO 6
B3: BL006-19-190G4-190K6 (antibody, V domains shown)
VH: EVQLVESGGGLVQPGGSLKLSCAASGFTFSNYGMSWVRQTPDKRLELVATINSNGGSTYYPDSVKGRFTISRDNAKNTLYLQMSSLKSEDTAMYYCTKRGAWYFDVWGTGTTVTVSS
VL: DIQMTQSSSSFSVSLGDRVTITCKASEDIYNRLAWYQQKPGNAPRLLISSATSLETGVSSRFSGSGSGKDYTLSITSLQTEDVATYYCQQYWTTPTWTFGGGTKLEIK
notes: Recombinant mIgG2a/kappa (also made as mIgG2a-D265A); also called candidate NO 16
B4: BL006-8-3G9-3K4 (antibody, V domains shown)
VH: QVQLQQSGAELVRPGASVKLSCKASGYRFTDYEMEWVKQTPVHGLEWIGAIDPETGGTAYNQKFKGKATVTADKSSRTAYMELRSLTSEDSAVYYCTREGDGSYGAYWGQGTLVTVSA
VL: DVMMTQTPLSLPVSLGDQASISCRSSQSIVYSNGNTYLEWYLQKPGQSPKLLMYKVSNRFSGVPDRFSGSGSGTDFTLKISRVEAEDLGVYYCFQGSHAPWTFGGGTKLEIK
notes: Recombinant mIgG2a/kappa (also made as mIgG2a-D265A); also called BL006-8-3G9-3K4 #6; candidate NO 4

Where only a bound is given, the exact number is not on record here.

One assay has as its target T1, human CD96 short isoform v2 expressed on CHO cells (human, UniProt P40200 22-585).
T1 construct: also called hCD96v2; CD96v2; not shown: C-terminal HA-tag
T1 sequence: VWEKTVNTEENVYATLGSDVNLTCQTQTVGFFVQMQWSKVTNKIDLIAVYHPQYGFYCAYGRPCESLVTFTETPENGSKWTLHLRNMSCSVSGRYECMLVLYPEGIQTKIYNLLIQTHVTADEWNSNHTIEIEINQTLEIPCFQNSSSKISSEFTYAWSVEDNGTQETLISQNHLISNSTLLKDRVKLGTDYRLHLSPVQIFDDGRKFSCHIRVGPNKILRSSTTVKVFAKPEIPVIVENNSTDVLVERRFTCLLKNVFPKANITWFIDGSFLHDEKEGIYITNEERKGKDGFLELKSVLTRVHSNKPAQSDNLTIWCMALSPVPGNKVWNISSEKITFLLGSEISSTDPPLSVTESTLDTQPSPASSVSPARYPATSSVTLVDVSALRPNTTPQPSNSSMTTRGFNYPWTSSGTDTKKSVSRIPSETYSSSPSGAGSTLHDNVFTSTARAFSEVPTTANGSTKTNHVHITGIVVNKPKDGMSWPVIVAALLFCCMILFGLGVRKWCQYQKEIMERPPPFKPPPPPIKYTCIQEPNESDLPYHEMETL
Briefly: FCM, inhibition of hCD155-Fc binding to hCD96v2-CHO cells; relative IC50. How it is done: (§1) All candidates except BL006-2-19 that bound very weakly on hCD96v2 by FCM were tested for their capacity to inhibit the binding of human CD155 to hCD96v2 stably expressed on CHO cells. Human CD96-transfected CHO cells (3×10⁵ cells/well of 96-well plate) were incubated at +4° C. for 30 minutes with serial dilutions of anti-CD96 antibodies or isotype control antibody (in mIgG2a or mIgG2aD265A format) in the presence of 4 μg/mL of biotinylated hCD155-Fc (produced and biotinylated at BliNK).
(§2) % inhibition=(1−(MFI_wAb&CD155−MFI_CHO)/(MFI_wCD155−MFI_CHO))×100, where MFI_wAb&CD155 is the Mean Intensity Fluorescence (MFI) obtained with the hCD96-CHO cells incubated with the tested antibody and hCD155-hFc; MFI_CHO is the MFI obtained in the absence of hCD155 and mAbs; and MFI_wCD155 is the fluorescence with hCD155 but without pre-incubation with antibody (0% CD155 binding inhibition). The % of inhibition was plotted against antibody concentration and the IC50 values were calculated by using a nonlinear regression analysis model of the GraphPad Prism software.
One may read the IC50 as the concentration needed to halve the response being measured. Low values mean higher potency, high ones lower potency. Molecule B1 showed an IC50 of 5.24 nM.
The same measure, in the same setting: in the case of B2 it was 2.67 nM.

For the next assay, the target named is T1, human CD96 short isoform v2 expressed …. Put plainly: FCM, inhibition of hCD155-Fc binding to hCD96v2-CHO cells. How it is done:
as §1, §2
Regarding B3, the IC50 came to 11.5 nM and the “Maximal Inhibition Capacity (%)” value was found to be 98.1%.
For B1, the “Maximal Inhibition Capacity (%)” value came out at 43.1%.
On the same count and under the same terms, the value for B2 was 41.4%.
On the same count and under the same terms, the value for B4 was less than 5%.

The target is the same in the next assay. Put plainly: FCM on hCD96v2-CHO cells. How it is done:
FIG. 6: Binding profiles of anti-hCD96 antibodies on human CD96-transfected CHO cells (hCD96v2, short isoform). CHO cells expressing hCD96v2 were incubated with serial dilution of the indicated mIgG1 or mIgG2a anti-CD96 or isotype control antibodies. […] The results are expressed as the difference of mean fluorescence intensity (delta MFI) between cells stained with antibodies and cells without antibodies. Dose response curves were obtained from GraphPad prism software using a non-linear regression fit with a variable slope model (4 parameters). To simplify the reading, results from the various anti-hCD96 candidates are shown on 4 different panels.
The capacity of the identified mouse anti-CD96 antibodies to recognize the cell membrane expressed human CD96 was further analyzed by flow cytometry (FCM) by using CHO cells stably transfected with the CD96 short isoform v2 (CD96v2; Genbank accession number NM_005816, flanked in C-terminus with HA-tag) (SEQ ID NO: 268).
Mouse anti-CD96 antibodies and isotype control antibodies were incubated at various concentrations from 10 μg/mL to 4.6 ng/mL with CHO cells expressing human CD96 at +4° C. for 30 minutes. […] The differences between the mean fluorescence intensity (MFI) obtained for each of the antibody concentration and the intensity obtained in absence of primary antibody (delta-MFI), were calculated and plotted against the concentrations of antibodies.
One may read the EC50 as the midpoint of the concentration-response curve. Lower therefore signals a more potent agent. Turning to B3, the EC50 came out at 3.39 nM and the “Maximum binding (delta MFI)” value is 711000 delta MFI.
The matching figures for B1: 2.98 nM and 753000 delta MFI.
Taken in the same sequence, the figures for B2 were 3.1 nM and 694000 delta MFI.
Taken in the same sequence, the figures for B4 were 4.68 nM and 235000 delta MFI.

Another assay deals with T2, mouse CD96 expressed on CHO cells (mouse, UniProt Q3U0X8 22-602).
T2 construct: whole, on cells; also called mCD96
T2 sequence (looked up): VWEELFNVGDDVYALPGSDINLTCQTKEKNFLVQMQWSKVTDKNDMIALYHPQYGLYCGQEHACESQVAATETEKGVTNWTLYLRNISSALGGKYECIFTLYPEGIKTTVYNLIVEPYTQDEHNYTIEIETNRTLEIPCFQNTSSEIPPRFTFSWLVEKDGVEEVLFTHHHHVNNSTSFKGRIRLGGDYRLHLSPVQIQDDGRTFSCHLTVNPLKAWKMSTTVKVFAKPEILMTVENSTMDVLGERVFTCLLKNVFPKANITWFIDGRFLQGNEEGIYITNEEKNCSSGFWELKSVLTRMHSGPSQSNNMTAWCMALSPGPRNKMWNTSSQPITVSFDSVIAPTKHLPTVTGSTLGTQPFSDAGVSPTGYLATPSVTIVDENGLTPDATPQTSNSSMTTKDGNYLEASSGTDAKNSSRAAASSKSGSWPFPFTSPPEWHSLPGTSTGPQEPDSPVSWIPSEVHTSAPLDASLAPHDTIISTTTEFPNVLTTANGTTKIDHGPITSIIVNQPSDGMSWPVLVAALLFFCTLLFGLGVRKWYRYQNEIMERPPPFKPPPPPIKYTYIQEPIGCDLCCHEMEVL
Put plainly: FCM on CHO cells expressing mouse CD96. From the text: (§3) The capacity of the identified mouse anti-human CD96 antibodies to recognize the CD96 protein from other species was further analyzed by flow cytometry by using CHO cells expressing the mouse or the rhesus CD96. The expression of the species-specific CD96 on CHO cell surface was confirmed by using staining with appropriate anti-CD96 antibodies and flow cytometry on non-fixed cells. The rat anti-mCD96 antibody clone #630612 (R&D Systems) and the candidate BL006-9-1 (positive by ELISA on rhesus CD96) were used to confirm the expression of rhesus CD96, while the clone 6A6 (rat IgG2a, e-Bioscience) was used to verify the expression of mouse CD96.
(§4) Mouse anti-CD96 antibodies and isotype control antibodies were incubated at 10 or 1 μg/mL with CHO cells expressing different CD96 species at +4° C. for 30 minutes.
Take B3: the binding result is “no binding (tested: 1 and 10 µg/mL)”.
The same measure, in the same setting: in the case of B1 it was “no binding (tested: 1 and 10 µg/mL)”; in that of B2, “no binding (tested: 1 and 10 µg/mL)”.
On the same count and under the same terms, the value for B4 was “no binding (tested: 1 and 10 µg/mL)”.

The next assay has as its target T3, rhesus CD96 transiently expressed on CHO cells (rhesus, UniProt P40200 22-585 (human entry)).
T3 construct: also called rhesus CD96, short isoform
T3 chain: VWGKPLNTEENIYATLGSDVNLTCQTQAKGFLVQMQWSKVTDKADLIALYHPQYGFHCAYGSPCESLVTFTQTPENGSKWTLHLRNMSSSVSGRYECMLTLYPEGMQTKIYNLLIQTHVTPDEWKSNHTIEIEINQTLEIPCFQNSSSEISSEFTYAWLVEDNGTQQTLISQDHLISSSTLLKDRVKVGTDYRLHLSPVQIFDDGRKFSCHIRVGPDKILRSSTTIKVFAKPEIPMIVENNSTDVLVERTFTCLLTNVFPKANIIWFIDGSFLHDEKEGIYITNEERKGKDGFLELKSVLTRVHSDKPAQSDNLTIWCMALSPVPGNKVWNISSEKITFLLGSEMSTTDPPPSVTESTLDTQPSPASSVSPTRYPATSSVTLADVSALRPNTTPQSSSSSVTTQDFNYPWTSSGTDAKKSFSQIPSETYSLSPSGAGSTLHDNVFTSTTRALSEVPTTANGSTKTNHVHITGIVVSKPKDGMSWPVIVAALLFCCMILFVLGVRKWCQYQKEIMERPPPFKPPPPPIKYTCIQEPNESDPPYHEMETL
Briefly: flow cytometry on CHO cells transiently expressing rhesus CD96; antibody at 1 (thin line) and 10 µg/ml (thick dashed line), filled grey = isotype control. As to the method:
FIG. 7: Binding profiles of anti-CD96 antibodies on CHO cells transfected with rhesus CD96. Anti-CD96 antibodies or the corresponding isotype control mAbs were tested for their capacity to recognize rhesus CD96 transiently expressed on CHO cells by flow cytometry. Each histogram represents the overlay of the fluorescence intensity obtained for each antibody tested at 1 (black line) and 10 μg/ml (thick dashed black line) and compared to the fluorescence obtained with an isotypic control (filled grey histogram).
as §3, §4
(In general: Flow cytometry measures light scatter and fluorescence of single cells or particles in a stream.)
B3: the binding result is listed as “no binding (tested: 10 µg/ml)”.
As to B1, the binding result is on record as “binds”.
Regarding B2, the binding result is listed as “binds”.
On to B4, for which the binding result is recorded as “no binding (tested: 10 µg/ml)”.
